Results from EP4039268A1 (IMBA-Institut für Molekulare Biotechnologie GmbH, dated 2022).

B1: Mrc1_3 CRD-mouse IgG2a-Fc fusion protein (Fc fusion)
chain: HGFYCYLIGSTLSTFTDANHTCTNEKAYLTTVEDRYEQAFLTSLVGLRPEKYFWTGLSDVQNKGTFRWTVDEQVQFTHWNADMPGRKAGCVAMKTGVAGGLWDVLSCEEKAKFVCKGGGSGGGSGGGS
B2: Lgalsl CRD-mouse IgG2a-Fc fusion protein (Fc fusion)
chain: PFCGHIKGGMRPGKKVLVMGIVDLNPESFAISLTCGDSEDPPADVAIELKAVFTDRQLLRNSCISGERGEEQSAIPYFPFIPDQPFRVEILCEHPRFRVFVDGHQLFDFYHRIQTLSAIDTIKINGDLQIGGGSGGGSGGGS
B3: Mrc2_8 CRD-mouse IgG2a-Fc fusion protein (Fc fusion)
chain: FREHCYSFHMEVLLGHKEALQRCQKAGGTVLSILDEMENVFVWEHLQTAEAQSRGAWLGMNFNPKGGTLVWQDNTAVNYSNWGPPGLGPSMLSHNSCYWIQSSSGLWRPGACTNITMGVVCGGGSGGGSGGGS
B4: Layn CRD-mouse IgG2a-Fc fusion protein (Fc fusion)
chain: TRRPCYKVIYFHDAFQRLNFEEAKETCMEDGGQLVSIETEDEQRLIEKFIENLLASDGDFWIGLKRLEEKQSNNTACQDLYAWTDGSTSQFRNWYVDEPSCGSEVCVVMYHQPSAPPGIGGSYMFQWNDDRCNMKNNFICKGGGSGGGSGGGS
B5: Clec7a CRD-mouse IgG2a-Fc fusion protein (Fc fusion)
chain: HGKSCYLFSFSGNSWYGSKRHCSQLGAHLLKIDNSKEFEFIESQTSSHRINAFWIGLSRNQSEGPWFWEDGSAFFPNSFQVRNTAPQESLLHNCVWIHGSEVYNQICNTSSYSICEGGGSGGGSGGGS
B6: Mrc1_8 CRD-mouse IgG2a-Fc fusion protein (Fc fusion)
chain: FYGHCYYFESSFTRSWGQASLECLRMGASLVSIETAAESSFLSYRVEPLKSKTNFWIGMFRNVEGKWLWLNDNPVSFVNWKTGDPSGERNDCVVLASSSGLWNNIHCSSYKGFICKGGGSGGGSGGGS
B7: Klri1 CRD-mouse IgG2a-Fc fusion protein (Fc fusion)
chain: FGNNFYCVFKENTKTWAESQSACEELNSHLVIIDSKAEVENLLLFEMDGWILHKMDGTNSSWLWRNDIKIQNTLTNDSEKKNHSCHYLRGNLFMPDECSAKKSYICEGGGSGGGSGGGS
B8: Klrb1c CRD-mouse IgG2a-Fc fusion protein (Fc fusion)
chain: HRDKCFHVSQVSNTWEEGQADCGRKGATLLLIQDQEELRFLLDSIKEKYNSFWIGLRFTLPDMNWKWINGTTFNSDVLKITGVTENGSCASILGDKVTPESCASDNRWICQGGGSGGGSGGGS
B9: Ly75_7 CRD-mouse IgG2a-Fc fusion protein (Fc fusion)
chain: YLNNLYKIISKPLTWHGALKECMKEKMRLVSITDPYQQAFLAVQATLRNSSFWIGLSSQDDELNFGWSDGKRLQFSNWAGSNEQLDDCVILDTDGFWKTADCDDNQPGAICYYGGGSGGGSGGGS
B10: Mrc2_5 CRD-mouse IgG2a-Fc fusion protein (Fc fusion)
chain: FQEAEYKFFEHHSSWAQAQRICTWFQADLTSVHSQAELDFLGQNLQKLSSDQEQHWWIGLHTLESDGRFRWTDGSIINFISWAPGKPRPIGKDKKCVYMTARQEDWGDQRCHTALPYICKGGGSGGGSGGGS
B11: Mrc1_6 CRD-mouse IgG2a-Fc fusion protein (Fc fusion)
chain: YKNKCFKIFGFANEEKKSWQDARQACKGLKGNLVSIENAQEQAFVTYHMRDSTFNAWTGLNDINAEHMFLWTAGQGVHYTNWGKGYPGGRRSSLSYEDADCVVVIGGNSREAGTWMDDTCDSKQGYICQGGGSGGGSGGGS
B12: Clec5a CRD-mouse IgG2a-Fc fusion protein (Fc fusion)
chain: HQGKCFFFSFSESPWKDSMDYCATQGSTLAIVNTPEKLKYLQDIAGIENYFIGLVRQPGEKKWRWINNSVFNGNVTNQDQNFDCVTIGLTKTYDAASCEVSYRWICEGGGSGGGSGGGS
B13: Cd209b CRD-mouse IgG2a-Fc fusion protein (Fc fusion)
chain: FLLGNCYFFSKSQRNWNDAVTACKEVKAQLVIINSDEEQTFLQQTSKAKGPTWMGLSDLKKEATWLWVDGSTLSSRFQKYWNRGEPNNIGEEDCVEFAGDGWNDSKCELKKFWICKGGGSGGGSGGGS
B14: Clec6a CRD-mouse IgG2a-Fc fusion protein (Fc fusion)
chain: FGSSCYLISTKENFWSTSEQNCVQMGAHLVVINTEAEQNFITQQLNESLSYFLGLSDPQGNGKWQWIDDTPFSQNVRFWHPHEPNLPEERCVSIVYWNPSKWGWNDVFCDSKHNSICEGGGSGGGSGGGS
B15: Klre1 CRD-mouse IgG2a-Fc fusion protein (Fc fusion)
chain: FRCSCYFFSKEELIWRDSQRACLSLNSSLIRMNKEEMNFFSLKSFFWVGVYYNETRRQWLWEDHSVLPSGLFSKLEANMKNFCASYKSKEAYMEENCANKLTYICKGGGSGGGSGGGS
B16: Klrg2 CRD-mouse IgG2a-Fc fusion protein (Fc fusion)
chain: SQEQCYYLSEEAQDWEGSQAFCSAHHATLPLLSHTQDFLRKYRITKGSWVGARRGPEGWHWTDGVPLPYQLFPADSEDHPDFSCGGLEEGRLVALDCSSPRPWVCAGGGSGGGSGGGS
B17: Ly75_9 CRD-mouse IgG2a-Fc fusion protein (Fc fusion)
chain: YKDGVYSVIQKKVTWYEALNACSQSGGELASVHNPNGKLFLEDIVNRDGFPLWVGLSSHDGSESSFEWSDGRAFDYVPWQSLQSPGDCVVLYPKGIWRREKCLSVKDGAICYKGGGSGGGSGGGS
B18: Mrc1_5 CRD-mouse IgG2a-Fc fusion protein (Fc fusion)
chain: YKDYQYYFSKEKETMDNARAFCKKNFGDLATIKSESEKKFLWKYINKNGGQSPYFIGMLISMDKKFIWMDGSKVDFVAWATGEPNFANDDENCVTMYTNSGFWNDINCGYPNNFICQGGGSGGGSGGGS
B19: Mrc2_6 CRD-mouse IgG2a-Fc fusion protein (Fc fusion)
chain: FLNKCFRIQGQDPQDRVKWSEAQFSCEQQEAQLVTIANPLEQAFITASLPNVTFDLWIGLHASQRDFQWIEQEPLLYTNWAPGEPSGPSPAPSGTKPTSCAVILHSPSAHFTGRWDDRSCTEETHGFICGGGSGGGSGGGS
B20: Ly75_3 CRD-mouse IgG2a-Fc fusion protein (Fc fusion)
chain: KDAESDKLCPPDEGWKRHGETCYKIYEKEAPFGTNCNLTITSRFEQEFLNYMMKNYDKSLRKYFWTGLRDPDSRGEYSWAVAQGVKQAVTFSNWNFLEPASPGGCVAMSTGKTLGKWEVKNCRSFRALSICKKGGGSGGGSGGGS
B21: Mrc1_7 CRD-mouse IgG2a-Fc fusion protein (Fc fusion)
chain: YGKSSYSLMKLKLPWHEAETYCKDHTSLLASILDPYSNAFAWMKMHPFNVPIWIALNSNLTNNEYTWTDRWRVRYTNWGADEPKLKSACVYMDVDGYWRTSYCNESFYFLCKGGGSGGGSGGGS
B22: Klrk1 CRD-mouse IgG2a-Fc fusion protein (Fc fusion)
chain: HRNNCYQFFNEEKTWNQSQASCLSQNSSLLKIYSKEEQDFLKLVKSYHWMGLVQIPANGSWQWEDGSSLSYNQLTLVEIPKGSCAVYGSSFKAYTEDCANLNTYICMGGGSGGGSGGGS
B23: Klrg1 CRD-mouse IgG2a-Fc fusion protein (Fc fusion)
chain: NGSHCYYFSMEKKDWNSSLKFCADKGSHLLTFPDNQGVKLFGEYLGQDFYWIGLRNIDGWRWEGGPALSLRILTNSLIQRCGAIHRNGLQASSCEVALQWICKGGGSGGGSGGGS
B24: Ly75_10 CRD-mouse IgG2a-Fc fusion protein (Fc fusion)
chain: YGGHCYASDQVLHSFSEAKQVCQELDHSATVVTIADENENKFVSRLMRENYNITMRVWLGLSQHSLDQSWSWLDGLDVTFVKWENKTKDGDGKCSILIASNETWRKVHCSRGYARAVCKIGGGSGGGSGGGS
B25: Ly75_4 CRD-mouse IgG2a-Fc fusion protein (Fc fusion)
chain: SSLSCYKVFHIERIVRKRNWEEAERFCQALGAHLPSFSRREEIKDFVHLLKDQFSGQRWLWIGLNKRSPDLQGSWQWSDRTPVSAVMMEPEFQQDFDIRDCAAIKVLDVPWRRVWHLYEDKDYAYWKPFACDAKLEWVCQGGGSGGGSGGGS
B26: Atrnl1 CRD-mouse IgG2a-Fc fusion protein (Fc fusion)
chain: VGDACLRINSSRESYDNAKLYCYNLSGNLASLTTSKEVEFVLDEIQKFTQQKVSPWVGLRKINISYWGWEDMSPFTNTSLQWLPGEPNDSGFCAYLERAAVAGLKANPCTSMADGLVCEGGGSGGGSGGGS

Experiments:
Test in all cases: ELISA screen
[1] = molecular target: T1, full-length trimeric SARS-CoV-2 Spike protein (Spike-H6) (SARS-CoV-2, N-glycosylated (22 N-glycosylation sites))
T1 construct: also called trimeric Spike; full-length Spike-H6

[2] = molecular target: T2, human recombinant soluble ACE2 (human, UniProt Q9BYF1 18-740)
T2 construct: also called hrsACE2
T2 sequence (Q9BYF1 18-740 limits assumed): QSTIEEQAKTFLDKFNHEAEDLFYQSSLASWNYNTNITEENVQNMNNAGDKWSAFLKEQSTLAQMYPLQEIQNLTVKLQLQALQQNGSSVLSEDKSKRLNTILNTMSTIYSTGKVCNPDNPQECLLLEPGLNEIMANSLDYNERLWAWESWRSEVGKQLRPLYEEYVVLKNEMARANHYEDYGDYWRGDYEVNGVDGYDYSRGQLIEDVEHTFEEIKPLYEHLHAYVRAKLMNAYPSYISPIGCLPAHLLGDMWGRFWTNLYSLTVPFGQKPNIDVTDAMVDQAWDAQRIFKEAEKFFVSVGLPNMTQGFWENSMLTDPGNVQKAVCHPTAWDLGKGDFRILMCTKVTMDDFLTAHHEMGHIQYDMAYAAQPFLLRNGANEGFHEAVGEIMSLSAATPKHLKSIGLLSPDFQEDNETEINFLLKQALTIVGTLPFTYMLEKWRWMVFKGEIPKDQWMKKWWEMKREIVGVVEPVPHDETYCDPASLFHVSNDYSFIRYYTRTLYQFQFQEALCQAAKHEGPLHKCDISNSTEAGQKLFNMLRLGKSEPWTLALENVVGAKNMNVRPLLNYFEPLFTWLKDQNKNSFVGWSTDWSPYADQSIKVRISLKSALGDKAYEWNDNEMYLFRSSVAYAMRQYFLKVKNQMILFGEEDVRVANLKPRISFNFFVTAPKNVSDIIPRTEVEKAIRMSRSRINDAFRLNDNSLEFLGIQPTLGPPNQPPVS

[3] = molecular target: T3, monomeric SARS-CoV-2 receptor binding domain (RBD-H6) (SARS-CoV-2, UniProt P0DTC2 319-541)
T3 construct: Made in HEK293-6E cells; also called RBD Spike; monomeric RBD

Binder	Mean normalized OD [1] [OD]	Mean normalized OD [2] [OD]	Mean normalized OD [3] [OD]
B1	0.037	-0.064	0.038
B2	0.006	-0.004	0.001
B3	0	-0.001	0.003
B4	0.002	-0.005	0
B5	0	-0.001	0.004
B6	-0.057	-0.021	0.019
B7	0.002	-0.003	0.001
B8	0.001	-0.004	0.004
B9	0.001	-0.009	0.003
B10	-0.002	-0.005	0.002
B11	0.004	-0.001	0.004
B12	0	-0.005	-0.001
B13	-0.032	-0.094	0.113
B14	0.003	-0.032	0.029
B15	-0.002	-0.006	0.045
B16	-0.044	-0.013	0.043
B17	0.001	-0.014	0.004
B18	-0.001	-0.004	0
B19	0.011	-0.019	0.006
B20	0.002	-0.003	0.001
B21	-0.002	-0.008	0.02
B22	0	-0.003	0
B23	0.003	-0.843	0.003
B24	-0.002	-0.02	0.014
B25	-0.014	-0.004	0.007
B26	0.001	-0.003	0.001
